Laboratory results taken from the DeepSol protein solubility set.

Test: soluble on expression in E. coli; label from the status in PepcDB or PDB records

Sequence	soluble on expression in E. coli
MTTTPANVLASVDLGSNSFRLQICENNNGQLKVIDSFKQMVRFAAGLDEQKNLSAASQEQALDCLAKFGERLRGFRPEQVRAVATNTFRVAKNIADFLPKAEAALGFPIEIIAGREEARLIYTGVIHTLPPGGGKMLVIDIGGGSTEFVIGSTLNPDITESLPLGCVTYSLRFFQNKITAKDFQSAISAARNEIQRISKNMRREGWDFAVGTSGSAKSIRDVLAAEMPQEADITYKGMRALAERIIEAGSVKKAKFENLKPERIEVFAGGLAVMMAAFEEMKLDRMTVTEAALRDGVFYDLIGRGLNEDMRGQTVAEFQHRYHVSLNQAKRTAETAQTFMDSLCHAKNVTVQELALWQQYLGRAAALHEIGLDIAHTGYHKHSAYILENADMPGFSRKEQTILAQLVIGHRGDMKKMSGIIGTNEMLWYAVLSLRLAALFCRSRQDLSFPKNMQLRTDTESCGFILRIDREWLERHPLIADALEYESVQWQKINMPFKVEAV	not soluble
MEPNNLKEELVSVFEKACSSHKERLDFICSVRESDTFSNVDVPLAPIKTIIEIAKNEENQTEILKLAIENIKTLSTVGSGQYIASHFSTHNEVAIIFCISYFLYHFNFLHDENKKQLLKRAFEAVAEKIADYLNEN	soluble
MSLEDTLQAPTPLQIERWLRKQFYSVDRNREDRISAKDLKNMLSQVNYRVPNMRFLRERLTDLEQRSGDITYGQFAQLYRSLMYSAQKTMDLPFLEASTLRAGERPELCRVSLPEFQQFLLDYQGELWAVDRLQVQEFMLSFLRDPLREIEEPYFFLDEFVTFLFSKENSVWNSQLDAVCPDTMNNPLSHYWISSSHNTYLTGDQFSSESSLEAYARCLRMGCRCIELDCWDGPDGMPVIYHGHTLTTKIKFSDVLHTIKEHAFVASEYPVILSIEDHCSIAQQRNMAQYFKKVLGDTLLTKPVEISADGLPSPNQLKRKILIKHKKLAEGSAYDENSPLGDLLRGVLDVPACQIAIRPEGKNNRLFVFSISMASVAHWSLDVAADSQEELQDEGHHHHHH	not soluble
MGSDKIHHHHHHIYCSGKLLQTVMAVQLYPDSKTFVDQPMKENQTGKSIMEHFEKRFPVSIEKITKKDVAEFVDEFFDKEGNELDVCDLPDWRPITEQLANIKDASYQAFAQRLHFIWIQLCRQIKPEVKNDPSRFSLIYVPYQFILPGGRFREFYYWDAYWILKGLIASELYSTARMMILNFAHIIETYGFVPNGGRVYYLRRSQPPFFAPMVYEYYLATQDIQLVADLIPVIEKEYTFWSERRTVNVTYEHPDLNETLHMFQYRTEAETPRPESFREDVLSAEHFTTKDRKKQFFKDLGSAAESGWDFSSRWFKNHKDISTIETTNIVPVDLNAFLCYNMNIMQLFYKLTGNPLKHLEWSSRFTNFREAFTKVFYVPARKGWYDYNLRTLTHNTDFFASNAVPLFSQCYDPLNSQIAVDVYNEMQNSGAFSIPGGIPTSMNEETNQQWDFPNGWSPMNHMIIEGLRKSNNPILQQKAFTLAEKWLETNMQTFNVSDEMWEKYNVKEPLGKLATGGEYEVQAGFGWTNGAALDLIFTYSDRLQYNGPILESLVGSQTTSMKSSPDSSTSLPIDITTTITTSSSSSTFGYSNILTLITVFVLYIL	not soluble
GSEEHCAPNKEPVKYGELVVLGYNGALPNGDRGRRKSRFALYKRPKANGVKPSTVHVISTPQASKAISCKGQHSISYTLSRNQTVVVEYTHDKDTDMFQVGRSTESPIDFVVTDTISGSQNTDEAQITQSTISRFACRIVCDRNEPYTARIFAAGFDSSKNIFLGEKAAKWKNPDGHMDGLTTNGVLVMHPRGGFTEESQPGVWREISVCGDVYTLRETRSAQQRGKLVESETNVLQDGSLIDLCGATLLWRTADGLFHTPTQKHIEALRQEINAARPQCPVGLN	soluble
MIKKCLFPAAGYGTRFLPITKTIPKEMLPIVDKPLIQYAVEEAMEAGCEVMAIVTGRNKRSLEDYFDTSYEIEHQIQGTNKENALKSIRNIIEKCCFSYVRQKQMKGLGHAILTGEALIGNEPFAVILADDLCISHDHPSVLKQMTSLYQKYQCSIVAIEEVALEEVSKYGVIRGEWLEEGVYEIKDMVEKPNQEDAPSNLAVIGRYILTPDIFEILSETKPGKNNEIQITDALRTQAKRKRIIAYQFKGKRYDCGSVEGYIEASNAYYKKRLLEHHHHHH	soluble
MVIIMQFYKEENFKEMHGLRVPEDWEVVRIGDFIKYIKGKKPAVMVDEELEGYYPYLSTEYLRDGIASKFVKITNKEIIVNENDILLLWDGSNAGEIFLGKKGILSSTMVKLEQKNKIMDDLYLFYSLKLKESFLKSQTKGTGIPHVDKKIFENIKIPLPPLEEQKQIAKILSDFDNLIGTINKQIEVLNKAKKGMMKKLFTKGVFEHKSFKKSEIGEIPEDWEVVKLKEVVDIQSGKYFKYSEFCENGVKCLKIDNVGFGKIFWETVSFLPEDYLNKYPQLVLKSGDIVLALNRPIIGGKIKIGILKDIDEPAILYQRVGRFIFKSEKIDKQFLFYLLMSEYFKKELSKLLIGTDQPYIRTPVLLNIKIPLPHLEEQKAMAERLKSIDNLIEIKRKEKEQIEKAKKKIMNLLLTGKIRVKNLNF	soluble
MGSDKIHHHHHHMVSEECSSFFYLHNSDFNMFGKKKNEDYSVKTVKVGVDKLTTIALGTMVKGTITVEGDLRLDGIIEGNVSCRGKVVIGPQGRIKGNVTCTGAVLHGMLQGDIQVAEDLIMKSGCTMNGDVYTCKLEIESKARFNGTCNTTEKDTLVTSQVVKPETVDTEK	not soluble
KHLFDEIDTIDVMDVNAGDHGKKFATNFDPETNMLEIQGDSFYWENGEWKQVPCHSRMLEFEFPNCGSHKVYSMAHDEVRSMKEFIPAKRIEFWMGFGDRYLNYFNVMRDIGLLSPDPLTLHDGTVVQPLHVLKALLPDP	not soluble
MRKRLSAPELRLSLTKGPGNDGASPTQSAPSSPDGSSDLEIDELETPSDSEQLDSGHEFEWEDELPRAEGLGTSETAERLGRGCMWDVTGEDGHHWRVFRMGPREQRVDMTVIEPYKKVLSHGGYHGDGLNAVILFASCYLPRSSIPNYTYVMEHLFRYMVGTLELLVAENYLLVHLSGGTSRAQVPPLSWIRQCYRTLDRRLRKNLRALVVVHATWYVKAFLALLRPFISSKFTRKIRFLDSLGELAQLISLDQVHIPEAVRQLDRDLHGSGGT	not soluble
MTRSVSHPPYADPFAHPPETSPQELTAQLTPGARFQDVRFENYRPNPEFPSQAQARDQLAEFVRQAGQKASGGGFWPFKRRAPEGRGFYLDGGFGVGKTHLLASAYHAAKGQSGGSGGDVAFMSFQDLMYLIGALGMPQAIETFRNYKLLLIDEFELDDPGNTHMANTFLGGLMPSGVSVVATSNTEPGALGAGRFNAEDFQRQIQGIADRFGPHRIDGPDYRQRGTEPAQPLSEAEFAAWLARQNPQTTALMTHAELNRALLSVHPSRFARVLEQVSGVAVTNLEPMPEQGEALRFVHFVDKVYDLGLSAAFTGVPLNALFDDIYRNGGYAKKYSRALSRLSEMLREARGLEHHHHHH	not soluble
MSWNCLLPIFVGFFVLFYEGQCQPARWTQQPGGQNPQPGASFPPNMNPVTNGPGSWTQKPGGYNNGPGSGSFKSTKPPRGLVYYQPKNYPYKPGKGGKYMHADPILPNANERLSAQSDQYTVSDGITGDWSKIVANSKGFYVLHPVQTKSEEDIFDPYTIGQVIGYLYEVQEFGGKKPPSGKYTIELMGKKIPDHLKKKRSLFGSPDRTRRATLVFKKKEQVKSTL	not soluble
MSLNCERVWLNVTPATLRSDLADYGLLEPHALGVHEGRIHALVPMQDLKGPYPAHWQDMKGKLVTPGLIDCHTHLIFAGSRAEEFELRQKGVPYAEIARKGGGIISTVRATRAASEDQLFELALPRVKSLIREGVTTVEIKSGYGLTLEDELKMLRVARRLGEALPIRVKTTLLAAHAVPPEYRDDPDSWVETICQEIIPAAAEAGLADAVDVFCEHIGFSLAQTEQVYLAADQYGLAVKGHMDQLSNLGGSTLAANFGALSVDHLEYLDPEGIQALAHRGVVATLLPTAFYFLKETKLPPVVALRKAGVPMAVSSDINPGTAPIVSLRMAMNMACTLFGLTPVEAMAGVTRHAARALGEQEQLGQLRVGMLADFLVWNCGHPAELSYLIGVDQLVSRVVNGEETLHGEGHHHHHH	soluble
MGSDKIHHHHHHMKNYTPIQTETTQNHSKSAGMNNQTEKVLDFDECITFLNKKGKELFGLKFFIDPADYEVVYKILIYIIKDERNAQRHKISLDKGIMLSGPVGCGKTTLMNLMNHIIPVANRYIVRSCRLVSYDFISQGYDAIHKYSYQSFKNNKKVVTPQAWCFDDLGTESSLKYYGNECNVMAEILLSRYDLFIEKDMVTHITTNLVAEEIESFYGVRVRSRMREMFNLISFDRNSKDKRV	not soluble
MLSALRTAGAVGTRRLASTQAIASNSEAPKGIATTGTPFLNPSSKAEYALARLDDVLNLAQRGSIWPLTFGLACCAVEMMHFAAPRYDMDRYGVVFRASPRQADLIFVAGTVTNKMAPALRRIYDQMPEAKWVISMGSCANGGGYYHYAYSVLRGCDRVIPVDIYVPGCPPTAEALLYGVLQLQKKIKRKREAQLWYRR	not soluble
RYLLRATTDDLYLVHDRQVAPFDGDLNDYYKWLTEQQKAERKEAQALQPVKDTANSAAAKKEQKRREAEFRKLTAPIRKTLTQLENKMDKLGVALAEAEEQLADNSLYEAENKAKLNEVLALQASSKSELEEVEMEWMSAQEELEQMELEFNQ	not soluble
MGSDKIHHHHHHMRVPPHNLEAEVAVLGSILIDPSVINDVLEILSHEDFYLKKHQHIFRAMEELYDEGKPVDVVSVCDKLQSMGKLEEVGGDLEVAQLAEAVPSSAHALHYAEIVKEKSILRKLIEISRKISESAYMEEDVEILLDNAEKMIFEISEMKTTKSYDHLRGIMHRVFENLENFRERANLIEPGVLITGLPTGFKSLDKQTTGFHSSDLVIIAARPSMGKTSFALSIARNMAVNFEIPVGIFSLEMSKEQLAQRLLSMESGVDLYSIRTGYLDQEKWERLTIAASKLYKAPIVVDDESLLDPRSLRAKARRMKKEYDVKAIFVDYLQLMHLKGRKESRQQEISEISRSLKLLARELDIVVIALSQLSRAVEQREDKRPRLSDLRESGAIEQDADTVIFIYREEYYRSKKSKEESKLHEPHEAEIIIGKQRNGPVGTITLIFDPRTVTFHEVDVVHS	not soluble
MSHDFAHTELEELLTRTREAIEASFGNRSPQVEVRGEGTDPDGHVRAVAVSGGRIETVEIAPQAVRLGSHRLAECALAAVNAALADLEAKAAEAAGLTGPQADALRERLREMQDLSLQQLRSYSRSLQDLMNSFERS	not soluble
MGSDKIHHHHHHMFKKIVLHGWRQFRNVDIDFHPRLTVLTGANGAGKTTLLNLVSRHFGWDGSFISTPVPRRSNPSLMYSTDFWDIDDIQVDIIHSFEREQNRKKQAAAQGSQTTIGKIIYGDGTETLITVPNSEVGSRYDVSIPARQRIDGLHIPSHRAPSTYQQVQNIPTIPRRRQEVFNQYLSLVQSRYLGSYTQWSPQYYMKETLISLATFGYGNAVVDADPESARLFEGFQEILRKMLPPKLRFKRLQIRVPEVILETETGNFSIDALSGGAAAVIDLAWQVFMYEPSESEFVVTLDEPENHLHPELQQRVLADLLTAFPSVQFVVATHSPFIVGSVPHSHVYVLGYDDSRRVNSTLLDTVNKTGTANEILRDVLGLEFTIPVWVENRLENLIEKYSKKDFTEDNLMMLRQEMTSLGLGKHVPQTISMLAQKKDGQ	not soluble
MGSDKIHHHHHHMRQGAGLGYRRDLAEGFLQLRNNDRIQFMEIAPENWIKMGGFARYQFDKVAEKIPILIHGLSLSLGGQAPLDKELLSSIKAMIKQYNTPFFSDHLSFCECDGHLYDLLPMPFTDEAVKHTAARIREVQDFLEIQISVENTSYYLHSETSTMNEVEFLNAIVQEANCGIHLDVNNIYVNAVNHGLLDPHVFIDNVDLKRVNYIHIAGHDDEHAATEVQIQTSESFNKIKGDLRHLPPLLVDTHGENVKGTVWDLLEYTYARLSHMPPTLLERDFNFPPFEKLCKEVDIIHQLQQKYVKKRGLSWLKI	not soluble
